Columns and labels:
[1] = target: T1, recombinant human SLPI (Secretory leukocyte protease inhibitor), R&D Systems Cat#260-PI (human, UniProt P03973 25-131, biotinylated in the streptavidin-plate ELISAs and on SRBCs); assay: ELISA, recombinant antibody in HEK 293 supernatant titrated 1:2 on biotinylated human SLPI
T1 construct: Bought protein; also called biotinylated SLPI; B-Cur12
Excerpt: After isolation of single plasma cells, mRNA was extracted and reverse transcriptase PCR was used to generate cDNA. The cDNA encoding the variable heavy and light chains was specifically amplified using polymerase chain reaction. The variable heavy chain region was cloned into an IgG2 expression vector, generated by cloning the constant domain of human IgG2 into the multiple cloning site of pcDNA3.1+/Hygro (Invitrogen, Burlington, ON). The variable light chain region was cloned into an IgK expression vector, generated by cloning the constant domain of human IgK into the multiple cloning site of pcDNA3.1+/Neo (Invitrogen, Burlington, ON). The heavy chain and the light chain expression vectors were then co-lipofected into a 60 mm dish of 70% confluent human embryonic kidney 293 (HEK 293) cells and the transfected cells were incubated for 24 hours to secrete recombinant antibody. Supernatant (3 mL) was harvested from the HEK 293 cells and the secretion of intact antibody and binding to SLPI tested ELISA. To detection secretion, 96 well plates were coated with 2 μg/mL of goat anti-human IgG H+L overnight. For detection of SLPI binders, streptavidin plates were coated with biotinylated human SLPI (0.5 μg/mL) overnight at four degrees. The plates were washed five times with dH₂O. Recombinant antibodies titrated 1:2 for 7 wells from the undiluted minilipofection supernatant were added, incubated and the plates were washed five times with dH₂O. Goat anti-human IgG Fc-specific HRP-conjugated antibody was added at a final concentration of 1 μg/mL, incubated for 1 hour at RT and the plates were washed as before. Plates were developed with the addition of TMB for 30 minutes and the reaction was stopped by the addition of 1 M phosphoric acid. Each ELISA plate was analyzed to determine the optical density of each well at 450 nm.

[2] = target: T1, recombinant human SLPI (Secretory …); assay: limiting antigen ELISA, biotinylated SLPI coated at 100 ng/ml
Experimental: The limiting antigen analysis is a method that affinity ranks the antigen-specific antibodies in B cell culture supernatants. […] Each plate was washed 5 times with dH₂O, before 46 μl/well of 1% milk in PBS with 0.05% sodium azide was added, followed by 4 μl/well of B cell supernatant. After 22 hours at RT on a shaker, the plates were again washed 5 times with dH₂O. Goat anti-Human (Fc)-HRP at 1 μg/ml, 50 μl/well was added. After 1 hour at RT, the plates were again washed 5 times with dH₂O and 50 μl/well of TMB substrate was added. The reaction was stopped by the addition of 50 μl of 1M phosphoric acid to each well and the plates were read at wavelength 450 nm. 42C1, 43H7, 35F1 and 9G12 were chosen for further evaluation and cloning.

[3] = target: T2, SLPI of human tumour cell lines (endogenous; on cells or in conditioned media) (human, UniProt P03973 26-132); assay: cell-based or functional assay
[4] = target: T2, SLPI of human tumour cell lines …; assay: flow cytometry, 42C1 at 170 nM on OVCAR-5 cells
Experimental: (§1) FACS analysis of anti-SLPI antibody binding to OVCAR4, OVCAR-5, OVCAR-8, SK-OV-3, A2780, SF294, 786-0 cell lines was done as follows. Suspended cells were washed twice with ice-cold FACS buffer (SOURCE) and incubated with antibody 42C1 (170 nM/FACS buffer) for 1 hr then washed. Cells were incubated with a 1:500 dilution in FACS buffer of […] donkey anti-human IgG (H+L) (Jackson Immunolabs) for 30 minutes. Cells were washed and then fixed with 1% formaldehyde in PBS. Analysis was done using a FACS Calibur™ flow cytometer (Becton Dickinson, Frankin Lakes, N.J.).
(§2) 42C1 antibody bound SLPI on SLPI expressing ovarian cancer cell lines: OVCAR-4 (Geo Mean Ratio 37), OVCAR-5 (Geo Mean Ratio 10), and OVCAR-8 (Geo Mean Ratio 35) as compared to SLPI negative cell line 786-0 (Geo Mean Ratio 3).

[5] = target: T2, SLPI of human tumour cell lines …; assay: flow cytometry, 42C1 at 170 nM on OVCAR-8 cells
Experimental: as §1, §2

[6] = target: T2, SLPI of human tumour cell lines …; assay: flow cytometry, 42C1 at 170 nM on OVCAR-4 cells
Experimental: as §1, §2

T2 sequence (P03973 26-132 limits assumed): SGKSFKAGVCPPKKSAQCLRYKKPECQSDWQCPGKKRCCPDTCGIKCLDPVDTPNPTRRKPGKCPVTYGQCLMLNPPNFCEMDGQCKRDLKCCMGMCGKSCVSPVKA
T1 sequence (P03973 25-131): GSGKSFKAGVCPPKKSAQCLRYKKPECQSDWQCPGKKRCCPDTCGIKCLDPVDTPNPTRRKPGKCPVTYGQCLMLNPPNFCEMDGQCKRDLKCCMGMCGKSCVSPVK

Binder | Binding to SLPI (titre of supernatant) [1] | OD [2] | IC50 of growth inhibition of IGROV-1 cells, clonogenic assay [3] | IC50 of growth inhibition of SW480 cells, clonogenic assay [3] | Geo Mean Ratio [4] | Geo Mean Ratio [5] | Geo Mean Ratio [6]
43H7 (antibody, human IgG2, V domains shown, Fully human, XenoMouse XMG2; also called #11; Cur12.1 PL43 H7) VH: QVQLVESGGGVVQPGRSLRLSCAASGFTFSTYGMHWVRQAPGKGLEWVTFIWYDGRNKYYADSVKGRFTVSRDNSKNTLYLQMNSLRAEDTAVYYCARGDDYGDYHPHYYYYGLDVWGQGTTVTVSS VL: DIVMTQTPLSLSVTPGQPASISCKSSQSLLDSDGKTYLYWYLQKPGQPPQLLIYEVSNRFSGVPDRFSGSGSGTDFTLKISRVEAEDVAYYYCMQSIQLPWTFGQGTKVEIK | > 64 reciprocal dilution | 2.6 OD450 | – | – | – | – | –
9G12 (antibody, human IgG2, V domains shown, Fully human, XenoMouse XMG2; also called #36; Cur12.1 PL09 G12) VH: QVQLVESGGGVVQPGRSLRLSCAASGFTFSGYGMHWVRQAPGKGLEWVAFIWYNGNDNYYTDSVKGRFTISRDNSKNTLYLQMNSLRAEDTAVYYCARGDDYGDYHPHYYYYGMDVWGQGTTVTVSS VL: DIVMTQTPLSLSVTPGQPASISCKSSQSLLDSDGKTYLYWYLQKPGQPPQLLIYEVSNRFSGVPDRFSGSGSGTDFTLKISRVEAEDIGVYYCLQSIQLPWTFGQGTKVEIK | > 64 reciprocal dilution | 0.98 OD450 | – | – | – | – | –
35F1 (antibody, human IgG2, V domains shown, Fully human, XenoMouse XMG2; also called #50; Cur12.1 PL35 F1) VH: QVQLQESGPGLVKPSQTLSLTCTVSGGSIKSGDYYWSWVRQLPGKGLEWIGYIYYSGSTYYNPSLKSRVTISIDTSKNQFSLKLSSVTAADTAVYYCAREGSYYDSGGFDYWGQGTLVTVSS VL: not shown | > 64 reciprocal dilution | 0.2 OD450 | 163 nM | 85 nM | – | – | –
42C1 (antibody, human IgG2, V domains shown, Fully human, XenoMouse XMG2; also called #24; Cur12.1 PL42 C1) VH: QVQLQESGPGLVKPSQTLSLTCTVSGVSISSGGYYWSWIRQHPGKGLEWIGYIYYSGSTYYNPSLKSRVTISVDTSKNQFSLKLSSVTAADTAVFYCAREGEYYDEGGFDYWGQGTLVTVSS VL: not shown | > 64 reciprocal dilution | 3.42 OD450 | 121 nM | 85 nM | 10 | 35 | 37
